Patent US20150258192A1, “COMPOSITIONS AND METHODS FOR PREVENTING OR TREATING CHRONIC LUNG ALLOGRAFT DYSFUNCTION (CLAD) AND IDIOPATHIC PULMONARY FIBROSIS (IPF)” (priority 2014, published 2015)
No end group written: not given here.

These sequences were tested against T1, Tec(h) activated (Homo sapiens, UniProt P42680) (assay: Kinase Profiling Assay). Settings: peptide 100 μM.
T1 construct: purchased Millipore
T1 sequence (P42680 1-631): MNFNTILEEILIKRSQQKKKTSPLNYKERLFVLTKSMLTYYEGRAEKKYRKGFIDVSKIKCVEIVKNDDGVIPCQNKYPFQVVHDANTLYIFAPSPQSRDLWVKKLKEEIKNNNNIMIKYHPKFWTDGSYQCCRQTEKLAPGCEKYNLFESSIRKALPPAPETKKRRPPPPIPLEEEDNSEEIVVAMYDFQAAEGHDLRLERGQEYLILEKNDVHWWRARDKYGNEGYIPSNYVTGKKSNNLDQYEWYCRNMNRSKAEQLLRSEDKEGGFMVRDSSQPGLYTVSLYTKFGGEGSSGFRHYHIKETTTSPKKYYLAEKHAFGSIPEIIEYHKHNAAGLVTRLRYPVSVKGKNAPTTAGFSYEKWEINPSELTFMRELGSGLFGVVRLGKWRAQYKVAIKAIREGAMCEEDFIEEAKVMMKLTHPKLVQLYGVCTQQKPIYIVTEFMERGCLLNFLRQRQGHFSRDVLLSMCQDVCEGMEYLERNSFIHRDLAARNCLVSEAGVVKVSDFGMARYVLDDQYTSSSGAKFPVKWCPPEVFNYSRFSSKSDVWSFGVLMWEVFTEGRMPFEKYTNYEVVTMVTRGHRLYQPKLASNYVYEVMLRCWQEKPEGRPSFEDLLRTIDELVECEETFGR
Format: biochemical
Procedure, shortened: (§1)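 Duplicate wells; [radiolabeled] ATP phosphate onto cationic substrate; filter capture (negatively charged membrane); scintillation count; % of 100% activity control. Selectivity screen of MK2 peptide inhibitors, 266 human kinases.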

Sequence | % activity [%]
FAKLAARLYRKALARQLGVAA [MMI-0300] | 56
HRRIKAWLKKIKALARQLGVAA (Mammal) [MMI-0500] | 33
KAFAKLAARLYRKALARQLGVAA [MMI-0400] | 29
YARAAARQARAKALARQLGVAA [MMI-0100] | 100
YARAAARQARAKALNRQLGVA (Mammal) [MMI-0200] | 77

The sequences below were run against PKCβI(h) (Homo sapiens, UniProt P05771) (assay: Kinase Profiling Assay). Settings: peptide 100 μM.
Format: biochemical
Procedure, shortened: as §1

PKCβI(h), sequence (P05771 whole entry): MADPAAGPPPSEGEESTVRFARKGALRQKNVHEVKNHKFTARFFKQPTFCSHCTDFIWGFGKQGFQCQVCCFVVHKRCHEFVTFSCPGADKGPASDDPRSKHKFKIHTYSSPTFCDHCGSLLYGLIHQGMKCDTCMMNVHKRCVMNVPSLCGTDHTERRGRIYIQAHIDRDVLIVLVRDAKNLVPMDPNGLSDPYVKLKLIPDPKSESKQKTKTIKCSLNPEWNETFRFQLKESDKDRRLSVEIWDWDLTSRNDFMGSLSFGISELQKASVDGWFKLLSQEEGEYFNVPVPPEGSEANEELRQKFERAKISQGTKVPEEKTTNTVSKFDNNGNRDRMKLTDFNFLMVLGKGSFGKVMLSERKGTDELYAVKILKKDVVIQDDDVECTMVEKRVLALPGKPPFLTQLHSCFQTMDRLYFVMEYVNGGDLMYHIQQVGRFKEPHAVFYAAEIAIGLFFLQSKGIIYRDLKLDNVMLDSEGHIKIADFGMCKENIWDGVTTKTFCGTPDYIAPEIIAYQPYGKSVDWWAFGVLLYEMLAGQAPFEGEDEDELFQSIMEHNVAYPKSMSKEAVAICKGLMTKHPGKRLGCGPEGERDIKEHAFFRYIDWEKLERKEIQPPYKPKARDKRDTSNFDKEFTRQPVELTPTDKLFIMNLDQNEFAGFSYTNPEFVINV

Sequence | % activity [%]
FAKLAARLYRKALARQLGVAA [MMI-0300] | 78
HRRIKAWLKKIKALARQLGVAA (Mammal) [MMI-0500] | 1
KAFAKLAARLYRKALARQLGVAA [MMI-0400] | 78
YARAAARQARAKALNRQLGVA (Mammal) [MMI-0200] | 98

What follows are sequences tested against CDK1/cyclinB(h) (Homo sapiens, UniProt P06493) (assay: Kinase Profiling Assay). Settings: peptide 100 μM.
Format: biochemical
Procedure, shortened: as §1

CDK1/cyclinB(h), sequence (P06493 whole entry): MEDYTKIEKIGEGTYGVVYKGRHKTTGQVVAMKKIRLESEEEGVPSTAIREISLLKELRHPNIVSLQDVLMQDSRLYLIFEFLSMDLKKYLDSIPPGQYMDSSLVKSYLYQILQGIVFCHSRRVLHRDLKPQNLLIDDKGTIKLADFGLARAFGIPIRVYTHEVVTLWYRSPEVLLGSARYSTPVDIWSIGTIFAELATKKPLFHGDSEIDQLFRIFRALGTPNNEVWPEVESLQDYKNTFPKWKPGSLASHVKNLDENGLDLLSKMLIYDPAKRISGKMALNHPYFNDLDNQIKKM
CDK1/cyclinB(h), sequence (P14635 whole entry partner): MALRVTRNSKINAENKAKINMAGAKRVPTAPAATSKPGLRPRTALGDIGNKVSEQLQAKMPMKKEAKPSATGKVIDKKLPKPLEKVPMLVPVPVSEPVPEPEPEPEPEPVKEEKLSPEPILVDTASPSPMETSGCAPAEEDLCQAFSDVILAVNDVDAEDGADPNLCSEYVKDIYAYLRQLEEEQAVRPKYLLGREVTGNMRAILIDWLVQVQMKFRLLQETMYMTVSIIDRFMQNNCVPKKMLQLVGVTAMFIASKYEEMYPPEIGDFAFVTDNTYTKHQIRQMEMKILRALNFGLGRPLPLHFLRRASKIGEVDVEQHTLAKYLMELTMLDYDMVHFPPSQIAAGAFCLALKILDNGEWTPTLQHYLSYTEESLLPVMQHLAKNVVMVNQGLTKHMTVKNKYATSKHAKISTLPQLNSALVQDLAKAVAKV

Sequence | % activity [%]
FAKLAARLYRKALARQLGVAA [MMI-0300] | 73
HRRIKAWLKKIKALARQLGVAA (Mammal) [MMI-0500] | 57
KAFAKLAARLYRKALARQLGVAA [MMI-0400] | 74

Each sequence was assayed against T2, SIK(h) (Homo sapiens, UniProt P57059) (assay: Kinase Profiling Assay). Settings: peptide 100 μM.
T2 construct: purchased Millipore
Format: biochemical
Procedure, shortened: as §1

T2 sequence (P57059 whole entry): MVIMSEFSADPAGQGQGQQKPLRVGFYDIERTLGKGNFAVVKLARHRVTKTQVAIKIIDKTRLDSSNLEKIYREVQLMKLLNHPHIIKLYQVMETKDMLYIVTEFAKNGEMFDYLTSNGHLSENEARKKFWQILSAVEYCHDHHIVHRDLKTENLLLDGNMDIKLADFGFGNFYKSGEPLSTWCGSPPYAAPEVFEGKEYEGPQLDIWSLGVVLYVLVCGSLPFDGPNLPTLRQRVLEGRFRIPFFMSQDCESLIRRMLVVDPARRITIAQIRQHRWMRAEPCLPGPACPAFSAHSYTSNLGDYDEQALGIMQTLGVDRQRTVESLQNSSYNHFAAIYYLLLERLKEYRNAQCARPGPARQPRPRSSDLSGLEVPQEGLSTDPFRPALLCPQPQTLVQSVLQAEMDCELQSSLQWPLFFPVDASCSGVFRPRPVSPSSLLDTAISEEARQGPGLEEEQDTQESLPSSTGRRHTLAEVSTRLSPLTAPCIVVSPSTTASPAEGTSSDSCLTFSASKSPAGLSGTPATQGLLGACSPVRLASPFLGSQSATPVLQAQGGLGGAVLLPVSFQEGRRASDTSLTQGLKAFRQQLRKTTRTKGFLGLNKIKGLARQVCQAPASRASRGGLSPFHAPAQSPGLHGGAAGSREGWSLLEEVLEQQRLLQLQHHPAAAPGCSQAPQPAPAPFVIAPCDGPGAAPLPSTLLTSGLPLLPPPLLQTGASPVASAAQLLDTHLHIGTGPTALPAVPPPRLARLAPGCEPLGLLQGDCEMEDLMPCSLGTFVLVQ

Sequence | % activity [%]
FAKLAARLYRKALARQLGVAA [MMI-0300] | 66
HRRIKAWLKKIKALARQLGVAA (Mammal) [MMI-0500] | 40
KAFAKLAARLYRKALARQLGVAA [MMI-0400] | 68

What follows are sequences tested against ErbB4(h) (Homo sapiens, UniProt Q15303) (assay: Kinase Profiling Assay). Settings: peptide 100 μM.
Format: biochemical
Procedure, shortened: as §1

ErbB4(h), sequence (Q15303 26-1308): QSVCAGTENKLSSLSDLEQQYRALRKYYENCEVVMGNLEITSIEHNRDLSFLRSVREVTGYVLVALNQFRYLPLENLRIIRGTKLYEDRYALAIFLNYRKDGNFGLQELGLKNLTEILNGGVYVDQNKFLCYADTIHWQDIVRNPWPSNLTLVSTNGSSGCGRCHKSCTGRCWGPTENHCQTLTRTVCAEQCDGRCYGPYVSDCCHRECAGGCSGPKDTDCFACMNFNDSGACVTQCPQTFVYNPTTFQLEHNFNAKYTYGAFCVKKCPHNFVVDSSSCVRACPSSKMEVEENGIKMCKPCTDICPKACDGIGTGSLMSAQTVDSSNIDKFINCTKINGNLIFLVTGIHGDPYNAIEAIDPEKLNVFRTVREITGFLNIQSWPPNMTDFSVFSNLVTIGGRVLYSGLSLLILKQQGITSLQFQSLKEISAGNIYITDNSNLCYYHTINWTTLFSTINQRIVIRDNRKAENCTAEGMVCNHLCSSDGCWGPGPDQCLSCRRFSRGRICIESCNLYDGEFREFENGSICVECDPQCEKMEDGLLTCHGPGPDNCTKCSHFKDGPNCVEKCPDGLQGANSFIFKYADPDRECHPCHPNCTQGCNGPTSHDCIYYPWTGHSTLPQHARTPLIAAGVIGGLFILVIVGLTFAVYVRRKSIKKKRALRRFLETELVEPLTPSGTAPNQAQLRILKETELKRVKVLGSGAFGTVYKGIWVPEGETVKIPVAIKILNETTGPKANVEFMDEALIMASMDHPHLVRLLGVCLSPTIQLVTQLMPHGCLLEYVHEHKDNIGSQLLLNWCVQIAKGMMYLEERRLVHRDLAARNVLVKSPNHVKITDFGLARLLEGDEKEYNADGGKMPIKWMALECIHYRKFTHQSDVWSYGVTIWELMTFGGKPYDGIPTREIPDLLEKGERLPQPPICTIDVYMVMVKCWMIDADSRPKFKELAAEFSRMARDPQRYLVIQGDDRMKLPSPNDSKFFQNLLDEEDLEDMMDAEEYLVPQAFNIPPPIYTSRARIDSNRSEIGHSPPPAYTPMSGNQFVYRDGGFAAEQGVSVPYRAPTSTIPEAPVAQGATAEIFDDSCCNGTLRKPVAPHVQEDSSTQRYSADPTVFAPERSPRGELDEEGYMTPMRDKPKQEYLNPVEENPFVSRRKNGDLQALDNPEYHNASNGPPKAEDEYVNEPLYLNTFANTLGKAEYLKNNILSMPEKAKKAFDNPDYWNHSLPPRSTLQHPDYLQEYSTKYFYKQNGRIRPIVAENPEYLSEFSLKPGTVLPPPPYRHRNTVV

Sequence | % activity [%]
FAKLAARLYRKALARQLGVAA [MMI-0300] | 40
HRRIKAWLKKIKALARQLGVAA (Mammal) [MMI-0500] | 2
KAFAKLAARLYRKALARQLGVAA [MMI-0400] | 0
YARAAARQARAKALARQLGVAA [MMI-0100] | 73
YARAAARQARAKALNRQLGVA (Mammal) [MMI-0200] | 82

Each sequence was assayed against T3, MEK1(h) (Homo sapiens, UniProt Q02750) (assay: Kinase Profiling Assay). Settings: peptide 100 μM.
T3 construct: purchased Millipore
Format: biochemical
Procedure, shortened: as §1

Sequence | % activity [%]
FAKLAARLYRKALARQLGVAA [MMI-0300] | 77
HRRIKAWLKKIKALARQLGVAA (Mammal) [MMI-0500] | 21
KAFAKLAARLYRKALARQLGVAA [MMI-0400] | 77

These sequences were tested against T4, PKD2(h) (Homo sapiens, UniProt Q9BZL6) (assay: Kinase Profiling Assay). Settings: peptide 100 μM.
T4 sequence (Q9BZL6 1-878): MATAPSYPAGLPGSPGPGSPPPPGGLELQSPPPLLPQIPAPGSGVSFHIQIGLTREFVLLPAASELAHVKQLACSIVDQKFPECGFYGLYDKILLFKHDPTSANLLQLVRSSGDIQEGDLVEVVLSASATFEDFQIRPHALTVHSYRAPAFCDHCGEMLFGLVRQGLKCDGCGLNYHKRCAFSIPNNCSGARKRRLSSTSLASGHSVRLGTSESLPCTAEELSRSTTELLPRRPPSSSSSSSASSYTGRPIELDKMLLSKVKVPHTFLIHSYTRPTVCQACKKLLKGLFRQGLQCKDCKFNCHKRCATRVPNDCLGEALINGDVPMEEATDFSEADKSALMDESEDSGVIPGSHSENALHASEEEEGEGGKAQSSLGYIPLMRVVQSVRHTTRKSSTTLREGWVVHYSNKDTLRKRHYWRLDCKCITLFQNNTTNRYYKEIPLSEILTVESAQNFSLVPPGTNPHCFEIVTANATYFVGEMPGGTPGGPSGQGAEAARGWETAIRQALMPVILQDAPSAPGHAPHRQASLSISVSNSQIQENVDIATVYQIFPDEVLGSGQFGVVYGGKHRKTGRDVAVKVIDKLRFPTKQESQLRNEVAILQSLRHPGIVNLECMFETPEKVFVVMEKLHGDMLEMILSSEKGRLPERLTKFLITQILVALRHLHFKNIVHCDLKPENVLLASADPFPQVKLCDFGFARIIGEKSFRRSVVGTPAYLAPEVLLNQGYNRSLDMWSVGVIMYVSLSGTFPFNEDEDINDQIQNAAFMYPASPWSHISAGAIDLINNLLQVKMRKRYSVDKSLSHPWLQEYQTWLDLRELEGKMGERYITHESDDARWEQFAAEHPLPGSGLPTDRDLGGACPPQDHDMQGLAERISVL
Format: biochemical
Procedure, shortened: as §1

Sequence | % activity [%]
FAKLAARLYRKALARQLGVAA [MMI-0300] | 33
HRRIKAWLKKIKALARQLGVAA (Mammal) [MMI-0500] | 10
KAFAKLAARLYRKALARQLGVAA [MMI-0400] | 25
YARAAARQARAKALARQLGVAA [MMI-0100] | 84
YARAAARQARAKALNRQLGVA (Mammal) [MMI-0200] | 78

These sequences were tested against Fer(h) (Homo sapiens, UniProt P16591) (assay: Kinase Profiling Assay). Settings: peptide 100 μM.
Format: biochemical
Procedure, shortened: as §1

Sequence | % activity [%]
FAKLAARLYRKALARQLGVAA [MMI-0300] | 130
HRRIKAWLKKIKALARQLGVAA (Mammal) [MMI-0500] | 196
KAFAKLAARLYRKALARQLGVAA [MMI-0400] | 108
YARAAARQARAKALNRQLGVA (Mammal) [MMI-0200] | 101

The sequences below were run against T5, SGK(h) (Homo sapiens, UniProt O00141) (assay: Kinase Profiling Assay). Settings: peptide 100 μM.
T5 construct: purchased Millipore
T5 sequence (O00141 1-431): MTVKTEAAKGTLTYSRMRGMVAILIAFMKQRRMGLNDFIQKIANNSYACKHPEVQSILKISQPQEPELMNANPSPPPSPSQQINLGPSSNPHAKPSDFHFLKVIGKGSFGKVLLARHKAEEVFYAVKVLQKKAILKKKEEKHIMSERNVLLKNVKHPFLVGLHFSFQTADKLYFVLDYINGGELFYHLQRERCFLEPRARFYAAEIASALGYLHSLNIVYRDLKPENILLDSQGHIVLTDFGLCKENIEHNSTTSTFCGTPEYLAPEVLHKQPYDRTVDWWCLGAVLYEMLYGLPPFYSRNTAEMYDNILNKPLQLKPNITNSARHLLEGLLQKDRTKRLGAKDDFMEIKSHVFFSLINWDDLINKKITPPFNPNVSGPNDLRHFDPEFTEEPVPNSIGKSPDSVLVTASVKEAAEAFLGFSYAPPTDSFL
Format: biochemical
Procedure, shortened: as §1

Sequence | % activity [%]
FAKLAARLYRKALARQLGVAA [MMI-0300] | 48
HRRIKAWLKKIKALARQLGVAA (Mammal) [MMI-0500] | 2
KAFAKLAARLYRKALARQLGVAA [MMI-0400] | 54
YARAAARQARAKALARQLGVAA [MMI-0100] | 128

Each sequence was assayed against FGFR1(h) (Homo sapiens, UniProt P11362) (assay: Kinase Profiling Assay). Settings: peptide 100 μM.
Format: biochemical
Procedure, shortened: as §1

FGFR1(h), sequence (P11362 22-822): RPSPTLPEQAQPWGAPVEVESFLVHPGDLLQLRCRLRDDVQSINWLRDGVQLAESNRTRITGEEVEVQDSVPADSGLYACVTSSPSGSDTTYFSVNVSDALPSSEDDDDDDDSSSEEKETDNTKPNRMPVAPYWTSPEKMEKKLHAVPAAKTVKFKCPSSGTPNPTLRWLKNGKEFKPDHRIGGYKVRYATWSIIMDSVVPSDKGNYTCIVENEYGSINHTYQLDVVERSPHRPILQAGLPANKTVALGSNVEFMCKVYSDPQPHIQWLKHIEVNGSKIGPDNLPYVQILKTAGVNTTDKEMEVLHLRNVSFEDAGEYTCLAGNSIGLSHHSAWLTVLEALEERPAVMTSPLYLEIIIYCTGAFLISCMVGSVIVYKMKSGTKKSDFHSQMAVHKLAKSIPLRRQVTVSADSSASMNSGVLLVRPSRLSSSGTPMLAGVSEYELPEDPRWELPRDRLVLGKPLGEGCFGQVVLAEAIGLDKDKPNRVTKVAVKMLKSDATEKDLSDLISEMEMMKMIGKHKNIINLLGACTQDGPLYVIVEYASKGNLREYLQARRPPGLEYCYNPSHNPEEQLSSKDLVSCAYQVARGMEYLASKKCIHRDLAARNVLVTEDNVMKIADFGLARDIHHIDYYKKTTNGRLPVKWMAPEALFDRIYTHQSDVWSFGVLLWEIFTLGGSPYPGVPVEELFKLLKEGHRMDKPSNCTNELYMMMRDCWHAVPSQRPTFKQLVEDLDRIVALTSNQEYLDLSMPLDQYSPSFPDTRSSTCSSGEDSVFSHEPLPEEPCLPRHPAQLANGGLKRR

Sequence | % activity [%]
FAKLAARLYRKALARQLGVAA [MMI-0300] | 55
HRRIKAWLKKIKALARQLGVAA (Mammal) [MMI-0500] | 18
KAFAKLAARLYRKALARQLGVAA [MMI-0400] | 59
YARAAARQARAKALARQLGVAA [MMI-0100] | 120
YARAAARQARAKALNRQLGVA (Mammal) [MMI-0200] | 97
